B1: SWI/SNF complex subunit SMARCC1, residues 620 to 663; numbered along this chain, Q92922 (parent)
chain: GREWTEQETLLLLEALEMYKDDWNKVSEHVGSRTQDECILHFLR

± gives the uncertainty stated by the source.

In the data set the parent is B1. Put plainly: abundance fitness (aPCA) (normalised: wild type 0, dead -1); higher = more abundant; growth selection in yeast, the domain comes from the species named. The settings on record: Homo sapiens.
As for GREWTEQETLLLLEALEMYKDDWNKVSEHVGVRTQDECILHFLR [S32V], the abundance fitness was -0.191 ± 0.074. The result for GREWTEQETLLLLEALEMYKDDWNKVSEHVGRRTQDECILHFLR [S32R] reads -0.176 ± 0.067; that for GREWTEQETLLLLEALEMYKDDWNKVSEHVGYRTQDECILHFLR [S32Y], -0.182 ± 0.13. Consider GREWTEQETLLLLEALEMYKDDWNKVSEHVGKRTQDECILHFLR [S32K], for which the abundance fitness was determined as 0.05 ± 0.077. The figure for GREWTEQETLLLLEALEMYKDDWNKVSEHVGGRTQDECILHFLR [S32G] is 0.115 ± 0.057; for GREWTEQETLLLLEALEMYKDDWNKVSEHVGERTQDECILHFLR [S32E] it is 0.105 ± 0.088; for GREWTEQETLLLLEALEMYKDDWNKVSEHVGQRTQDECILHFLR [S32Q] it is 0.032 ± 0.068. For GREWTEQETLLLLEALEMYKDDWNKVSEHVWSRTQDECILHFLR [G31W], the abundance fitness was -0.543 ± 0.11. The result for GREWTEQETLLLLEALEMYKDDWNKVSEHVESRTQDECILHFLR [G31E] reads 0.032 ± 0.064; that for GREWTEQETLLLLEALEMYKDDWNKVSEHVPSRTQDECILHFLR [G31P], -0.11 ± 0.061; that for GREWTEQETLLLLEALEMYKDDWNKVSEHVISRTQDECILHFLR [G31I], -0.174 ± 0.099. The result for GREWTEQETLLLLEALEMYKDDWNKVSEHVLSRTQDECILHFLR [G31L] reads -0.528 ± 0.077. The result for GREWTEQETLLLLEALEMYKDDWNKVSEHVYSRTQDECILHFLR [G31Y] reads -0.487 ± 0.13; that for GREWTEQETLLLLEALEMYKDDWNKVSEHVASRTQDECILHFLR [G31A], -0.03 ± 0.073; that for GREWTEQETLLLLEALEMYKDDWNKVSEHVKSRTQDECILHFLR [G31K], 0.073 ± 0.084.

For GREWTEQETLLLLEALEMYKDDWNKVSEHVNSRTQDECILHFLR [G31N], the abundance fitness is -0.259 ± 0.15. In the case of GREWTEQETLLLLEALEMYKDDWNKVSEHVQSRTQDECILHFLR [G31Q], the abundance fitness is -0.518 ± 0.089. The result for GREWTEQETLLLLEALEMYKDDWNKVSEHVMSRTQDECILHFLR [G31M] reads -0.059 ± 0.087; that for GREWTEQETLLLLEALEMYKDDWNKVSEHVCSRTQDECILHFLR [G31C], -0.009 ± 0.072. The figure for GREWTEQETLLLLEALEMYKDDWNKVSEHVDSRTQDECILHFLR [G31D] is -0.205 ± 0.14; for GREWTEQETLLLLEALEMYKDDWNKVSEHVFSRTQDECILHFLR [G31F] it is -0.375 ± 0.15.

Regarding GREWTEQETLLLLEALEMYKDDWNKVSEHVVSRTQDECILHFLR [G31V], the abundance fitness was -0.028 ± 0.054. The figure for GREWTEQETLLLLEALEMYKDDWNKVSEHVGSRTQTECILHFLR [D36T] is -0.042 ± 0.077; for GREWTEQETLLLLEALEMYKDDWNKVSEHVGSRTQMECILHFLR [D36M] it is -0.375 ± 0.17. On to GREWTEQETLLLLEALEMYKDDWNKVSEHVGSRTQHECILHFLR [D36H], for which the abundance fitness is -0.092 ± 0.09.

For GREWTEQETLLLLEALEMYKDDWNKVSEHVGSRTQCECILHFLR [D36C], the abundance fitness was -0.126 ± 0.16.

In the case of GREWTEQETLLLLEALEMYKDDWNKVSEHVGSRTQAECILHFLR [D36A], the abundance fitness is -0.034 ± 0.064. The result for GREWTEQETLLLLEALEMYKDDWNKVSEHVGSRTQSECILHFLR [D36S] reads 0.021 ± 0.056. For the variant GREWTEQETLLLLEALEMYKDDWNKVSEHVGSRTQPECILHFLR [D36P], the abundance fitness is -0.083 ± 0.066. The figure for GREWTEQETLLLLEALEMYKDDWNKVSEHVGSRTQLECILHFLR [D36L] is -0.383 ± 0.073.

As for GREWTEQETLLLLEALEMYKDDWNKVSEHVGSRTQGECILHFLR [D36G], the abundance fitness worked out at 0.039 ± 0.1. The result for GREWTEQETLLLLEALEMYKDDWNKVSEHVGSRTQQECILHFLR [D36Q] reads 0.041 ± 0.11; that for GREWTEQETLLLLEALEMYKDDWNKVSEHVGSRTQRECILHFLR [D36R], -0.017 ± 0.054; that for GREWTEQETLLLLEALEMYKDDWNKVSEHVGSRTQFECILHFLR [D36F], -0.327 ± 0.11. The figure for GREWTEQETLLLLEALEMYKDDWNKVSEHVGSRTQIECILHFLR [D36I] is -0.342 ± 0.094; for GREWTEQETLLLLEALEMYKDDWNKVSEHVGSRTQVECILHFLR [D36V] it is -0.354 ± 0.075; for GREWTEQETLLLLEALEMYKDDWNKVSEHVGSRTQEECILHFLR [D36E] it is -0.002 ± 0.078. Take GREWTEQETLLLLEALEMYKDDWNKVSESVGSRTQDECILHFLR [H29S]: the abundance fitness was -0.344 ± 0.083. The figure for GREWTEQETLLLLEALEMYKDDWNKVSEVVGSRTQDECILHFLR [H29V] is -0.349 ± 0.11. The figure for GREWTEQETLLLLEALEMYKDDWNKVSEQVGSRTQDECILHFLR [H29Q] is -0.11 ± 0.13. The result for GREWTEQETLLLLEALEMYKDDWNKVSETVGSRTQDECILHFLR [H29T] reads -0.419 ± 0.11; that for GREWTEQETLLLLEALEMYKDDWNKVSEPVGSRTQDECILHFLR [H29P], -0.796 ± 0.16; that for GREWTEQETLLLLEALEMYKDDWNKVSERVGSRTQDECILHFLR [H29R], -0.153 ± 0.1. As for GREWTEQETLLLLEALEMYKDDWNKVSEYVGSRTQDECILHFLR [H29Y], the abundance fitness is -0.014 ± 0.095.

As to GREWTEQETLLLLEALEMYKDDWNKVSEHVGSRVQDECILHFLR [T34V], the abundance fitness is -0.119 ± 0.18. With GREWTEQETLLLLEALEMYKDDWNKVSEHVGSRQQDECILHFLR [T34Q], the abundance fitness was 0.199 ± 0.14.

For GREWTEQETLLLLEALEMYKDDWNKVSEHVGSRKQDECILHFLR [T34K], the abundance fitness worked out at 0.165 ± 0.086.

As to GREWTEQETLLLLEALEMYKDDWNKVSEHVGSRGQDECILHFLR [T34G], the abundance fitness came to 0.03 ± 0.12. The figure for GREWTEQETLLLLEALEMYKDDWNKVSEHVGSRLQDECILHFLR [T34L] is -0.257 ± 0.097. The figure for GREWTEQETLLLLEALEMYKDDWNKVSEHVGSRWQDECILHFLR [T34W] is -0.416 ± 0.13. The result for GREWTEQETLLLLEALEMYKDDWNKVSEHVGSRNQDECILHFLR [T34N] reads 0.075 ± 0.082; that for GREWTEQETLLLLEALEMYKDDWNKVSEHVGSRDQDECILHFLR [T34D], -0.036 ± 0.23. Take GREWTEQETLLLLEALEMYKDDWNKVSEHVGSRYQDECILHFLR [T34Y]: the abundance fitness was -0.715 ± 0.3. The result for GREWTEQETLLLLEALEMYKDDWNKVSEHVGSRFQDECILHFLR [T34F] reads -0.783 ± 0.36. The figure for GREWTEQETLLLLEALEMYKDDWNKVSEHVGSREQDECILHFLR [T34E] is 0.314 ± 0.22.

Take GREWTEQETLLLLEALEMYKDDWNKVSEHVGSRPQDECILHFLR [T34P]: the abundance fitness is -0.222 ± 0.25. The figure for GREWTEQETLLLLEALEMYKDDWNKVSEHVGSRIQDECILHFLR [T34I] is -0.4 ± 0.36; for GREWTEQETLLLLEALEMYKDDWNKVSEHVGSRRQDECILHFLR [T34R] it is 0.137 ± 0.084.
